According to patent US20220143140A1, “ANTI-CD6 ANTIBODY COMPOSITIONS AND METHODS FOR TREATING LUPUS” (Equillium, Inc., priority 2019, published 2022):

System: subjects with active lupus nephritis
Assay: Clinical trial: urinary soluble CD6 and soluble ALCAM before and after EQ001
Assay type: in vivo, human
Procedure: 30 ml of urine is collected from a patient (or control individual) and treated with a protease inhibitor cocktail tablet on ice (MiliporeSigma, Burlington, Mass., USA) according to manufacturer's instructions. The sample is centrifuged at 10,000×g for 1 min or 5,000×g for 2 min, and the urine is removed from any pellet, aliquoted, and quick frozen in a dry ice/methanol bath and stored at −80° C. until use.
Several suitable ELISA kits are available commercially and are suitable for use in detecting soluble ALCAM and soluble CD6. For example, human ALCAM DuoSet ELISA (R&D Systems, Minneapolis, Minn.) is utilized according to the manufacturer's instructions to measure soluble ALCAM in a urine sample, and quantification is performed by generating a standard curve. Human CD6 ELISA kit (Sandwich ELISA)(LifeSpan BioSciences, Inc, Seattle, Wash.) is utilized according to the manufacturer's instructions to measure soluble CD6 in a urine sample, and quantification is performed by generating a standard curve.
In order to determine whether high urinary levels of soluble CD6 and soluble ALCAM can be used as a biomarker for sensitivity to treatment with EQ001, a clinical trial is performed in which concentrations of these markers are analyzed in the urine of subjects with active lupus nephritis before and after treatment with EQ001.
Urine samples are collected from the subjects biweekly for 2-3 months to establish individual baseline urinary soluble CD6 and soluble ALCAM concentrations. Treatment is initiated after at least five baseline measurements are obtained. Subjects receive EQ001 or vehicle administered intravenously every two weeks for a total of 5 doses, and a urine sample is collected 3 days after initial dosing, and twice weekly thereafter over the course of the study, which continues for 20 weeks post-initial treatment.
As described above, immediately after collection, samples are treated, aliquoted, and frozen in accordance with the above method, and upon the completion of the study, samples are tested by ELISA.

[1] = Cohort 4, active lupus nephritis, iv every two weeks, 5 doses, ELISA

B1: EQ001: itolizumab, humanized anti-CD6 antibody, produced in CHO cells; VH/VK SEQ ID NOS: 1 and 2 (antibody, V domains shown)
VH: EVQLVESGGGLVKPGGSLKLSCAASGFKFSRYAMSWVRQAPGKRLEWVATISSGGSYIYYPDSVKGRFTISRDNVKNTLYLQMSSLRSEDTAMYYCARRDYDLDYFDSWGQGTLVTVSS
VL: DIQMTQSPSSLSASVGDRVTITCKASRDIRSYLTWYQQKPGKAPKTLIYYATSLADGVPSRFSGSGSGQDYSLTISSLESDDTATYYCLQHGESPFTLGSGTKLEIK
modifications: Made in Lab - synthesized VH amino acid sequence; Made in Lab - synthesized VK amino acid sequence
urinary soluble ALCAM levels [1]: significant decreases
urinary soluble CD6 levels [1]: significant decreases
response to treatment by basal soluble CD6 and soluble ALCAM (subjects with the highest basal levels): respond most dramatically
